According to IntAct's records for PubMed 21703451:

B1: Transient receptor potential protein (Drosophila melanogaster (Fruit fly)), P19334 (parent)
chain: MGSNTESDAEKALGSRLDYDLMMAEEYILSDVEKNFILSCERGDLPGVKKILEEYQGTDKFNINCTDPMNRSALISAIENENFDLMVILLEHNIEVGDALLHAISEEYVEAVEELLQWEETNHKEGQPYSWEAVDRSKSTFTVDITPLILAAHRNNYEILKILLDRGATLPMPHDVKCGCDECVTSQMTDSLRHSQSRINAYRALSASSLIALSSRDPVLTAFQLSWELKRLQAMESEFRAEYTEMRQMVQDFGTSLLDHARTSMELEVMLNFNHEPSHDIWCLGQRQTLERLKLAIRYKQKTFVAHPNVQQLLAAIWYDGLPGFRRKQASQQLMDVVKLGCSFPIYSLKYILAPDSEGAKFMRKPFVKFITHSCSYMFFLMLLGAASLRVVQITFELLAFPWMLTMLEDWRKHERGSLPGPIELAIITYIMALIFEELKSLYSDGLFEYIMDLWNIVDYISNMFYVTWILCRATAWVIVHRDLWFRGIDPYFPREHWHPFDPMLLSEGAFAAGMVFSYLKLVHIFSINPHLGPLQVSLGRMIIDIIKFFFIYTLVLFAFGCGLNQLLWYYAELEKNKCYHLHPDVADFDDQEKACTIWRRFSNLFETSQSLFWASFGLVDLVSFDLAGIKSFTRFWALLMFGSYSVINIIVLLNMLIAMMSNSYQIISERADTEWKFARSQLWMSYFEDGGTIPPPFNLCPNMKMLRKTLGRKRPSRTKSFMRKSMERAQTLHDKVMKLLVRRYITAEQRRRDDYGITEDDIIEVRQDISSLRFELLEIFTNNNWDVPDIEKKSQGVARTTKGKVMERRILKDFQIGFVENLKQEMSESESGRDIFSSLAKVIGRKKTQKGDKDWNAIARKNTFASDPIGSKRSSMQRHSQRSLRRKIIEQANEGLQMNQTQLIEFNPNLGDVTRATRVAYVKFMRKKMAADEVSLADDEGAPNGEGEKKPLDASGSKKSITSGGTGGGASMLAAAALRASVKNVDEKSGADGKPGTMGKPTDDKKAGDDKDKQQPPKDSKPSAGGPKPGDQKPTPGAGAPKPQAAGTISKPGESQKKDAPAPPTKPGDTKPAAPKPGESAKPEAAAKKEESSKTEASKPAATNGAAKSAAPSAPSDAKPDSKLKPGAAGAPEATKATNGASKPDEKKSGPEEPKKAAGDSKPGDDAKDKDKKPGDDKDKKPGDDKDKKPADNNDKKPADDKDKKPGDDKDKKPGDDKDKKPSDDKDKKPADDKDKKPAAAPLKPAIKVGQSSAAAGGERGKSTVTGRMISGWL

Variants of: B1
Conditions: with inad_drome inaD

Q: With V1266A as the variant, how does the “effect of a mutation on the interaction” value read?
A: The value was “decreasing interaction”.

Q: With V1266A;W1274A as the variant, how does the “effect of a mutation on the interaction” value read?
A: Its value is “disrupting interaction”.
